Measurements taken from US20120094271A1, “SELECTING FOR COOPERATIVELY INTERACTING MOLECULES” (Arizona Board of Regents for and on behalf of Arizona State …, priority 2008, published 2012).

Key:
[1] = isoelectric point (pI) of peptides; assay type: physicochemical
[2] = target: Beta-galactosidase (β-gal) (Escherichia coli, UniProt P00722); conditions: ~12 uM peptide, ~3 nM β-gal
Protocol: (§1) Beta-galactosidase (β-gal) (˜3 nM, Alexa647 labeled, the target) was preincubated with a solution containing ˜12 uM of the peptide “[…]” (the ligand). […] The complex between β-gal and the peptide complex was incubated with a […] 10,000 random sequence peptides (the “test molecules”) bound to the surface of a glass slide in an ordered fashion. The incubation took place for two hours and the binding pattern of this was compared to the binding pattern using only the labeled enzyme and no ligand.

β-gal enzyme = β-gal enzyme (Escherichia coli, UniProt P00722); conditions: ~12 uM peptide
Protocol: as §1

Beta-galactosidase (β-gal), sequence (P00722 2-1024): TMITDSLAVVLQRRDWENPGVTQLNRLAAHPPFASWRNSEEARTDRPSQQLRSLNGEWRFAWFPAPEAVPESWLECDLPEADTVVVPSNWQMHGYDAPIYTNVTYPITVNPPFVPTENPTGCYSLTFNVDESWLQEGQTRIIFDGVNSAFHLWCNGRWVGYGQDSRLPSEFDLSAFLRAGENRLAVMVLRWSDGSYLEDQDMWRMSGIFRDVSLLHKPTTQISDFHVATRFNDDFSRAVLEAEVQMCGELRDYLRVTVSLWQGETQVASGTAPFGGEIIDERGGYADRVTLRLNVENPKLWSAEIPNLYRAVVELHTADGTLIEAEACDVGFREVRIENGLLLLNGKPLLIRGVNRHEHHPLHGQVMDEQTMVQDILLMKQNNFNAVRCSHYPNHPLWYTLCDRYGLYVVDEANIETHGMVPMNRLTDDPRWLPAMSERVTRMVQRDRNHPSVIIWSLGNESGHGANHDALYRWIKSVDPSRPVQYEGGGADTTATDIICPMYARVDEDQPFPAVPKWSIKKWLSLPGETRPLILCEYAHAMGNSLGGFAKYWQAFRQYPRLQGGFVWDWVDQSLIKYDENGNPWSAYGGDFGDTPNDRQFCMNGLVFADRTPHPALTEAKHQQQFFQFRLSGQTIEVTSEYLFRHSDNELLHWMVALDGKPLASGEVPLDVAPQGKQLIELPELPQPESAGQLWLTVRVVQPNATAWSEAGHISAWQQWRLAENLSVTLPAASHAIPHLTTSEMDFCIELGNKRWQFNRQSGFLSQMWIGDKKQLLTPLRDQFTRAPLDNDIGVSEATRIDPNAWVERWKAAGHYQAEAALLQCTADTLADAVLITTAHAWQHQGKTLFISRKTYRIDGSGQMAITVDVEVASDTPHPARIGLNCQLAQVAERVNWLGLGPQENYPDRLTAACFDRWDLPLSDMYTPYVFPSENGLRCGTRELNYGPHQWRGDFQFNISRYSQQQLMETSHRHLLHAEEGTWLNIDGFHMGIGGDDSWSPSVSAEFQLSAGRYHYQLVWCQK
β-gal enzyme, sequence (P00722 2-1024): as above

RVFKRYKRWLHVSRYYFGSC
isoelectric point (pI) [1]: 10.6
β-gal activity inhibited [2]: 95%
binding to the β-gal enzyme (β-gal enzyme): binds strongly
